Experiment: yeast display, Sf9 membrane polyspecificity reagent, FACS + sequencing; frameworks hold sequencing errors
Procedure, shortened: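 Galactose-induced (36–48 hours) yeast carrying a synthetic nanobody display library were exposed to 10% biotinylated, detergent-solubilized Sf9 membrane reagent at 4 °C for 1 hour. FACS followed streptavidin microbead enrichment, using low and high (top ~1%) gates for expression (anti-HA) and reagent binding (streptavidin). Colony PCR, MiSeq 2 × 250 sequencing and CDR-length filtering followed. Labels for polyreactivity reflect the gate of origin.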

Sequence | polyreactivity (PSR sort gate)
QVHLVESGGGLVQAGGRLRLSCAASGSIFPGYAMGWYRQAPGKERELVAAITFSGGSTYYADSLKGRFTISRDNAKNTVYLQMNSLKPEDTAVYYCAAPGWYGGYPSYYEYGYWGQGTQVTVSS | low polyreactivity
QVHLVESGGGLVQAGGSLLLSCAASGRILGPNAMGWYIQAPGKERELVAAINSGGSTNYADSVKGRFTISRDNAKNTVYLQMNSLKAEDTAVYYCNAVYGVYDFNYWGQGTQVTVSS | low polyreactivity
QVHLVESGGGLVQAGGSLRISCSASGPSYTHYAMGWYRQAPGKERELVASICDGGGTHYADSVKGRFTISRDNAKNTVYLEMKSLKPEDTAVYYCATYRYPTRRYDYWGQGTQVPVSS | low polyreactivity
QVHLVESGGGLVQAGGSLRLCCAASGSILVSYAMGWYRQAAGKERELVAAITYTGGNTYYADSGKGRFTISRDNAKNTVYVQLNSQKPEDTAVYYCNAGWTQTSVTFDYWGQGTQVTVSS | low polyreactivity
QVHLVESGGGLVQAGGSLRLICAASGISFLAYAMGCYRHAPRKERELVAAISTDGGSTYYADSVKGRFTISRDNAKNTVYLQMNSLKPVYTAVYYCAAKQRYVRTRGMDYWGQGTQVTVSS | high polyreactivity
QVHLVESGGGLVQAGGSLRLICAASGSIFPRNAMGWYRQAPGKERELVARINSGGTTKYADSVKGRFTISRDNAKNTVFLQMNSLKPEDTAVYYCNADTYILDPLRKSYGYDYWGQGTQVTVSS | low polyreactivity
QVHLVESGGGLVQAGGSLRLICAASGYIFPYYSMGWYRQAPGKERELVAGITTDGSSTYYADSVKGRFTISRDNAKKTVYLQMNSLKPEDTAVYYCYGYPGYTWGWYDFWGQGSQVTVSS | low polyreactivity
QVHLVESGGGLVQAGGSLRLICAAYRRTLGGNAMGWYRQAPGKERELVAPITHSASTYADSVKGRFTISRDNAKNTVYLQMNSLKPEDTAVYYCNAPDPSDQHGDYWGQGTQVTVSS | low polyreactivity
QVHLVESGGGLVQAGGSLRLRCAASGLTSTNNAMGWYRQAPGKERELVAAITSGSTTNYADSVKGRFTISRDNAKNTVYLQMNSLNPEDTAVYYCAAQYGVWWRGYYYPEYDYWGEGTQVTVSS | low polyreactivity
QVHLVESGGGLVQAGGSLRLRCAASGSISGRYAMGWYRQAPGKERELVAAISWIGGSTYYADSVKGRFTISRDNAKNTVYLQMNSLKPEDTAVYYCNVSIDTRTHPLLVVFYGYDYWGQGTQVSVSS | low polyreactivity
QVHLVESGGGLVQAGGSLRLRCAASGSTFGYYAMGWYRQAPGKERELVAAIRGSVTRTYYADSVKGRFTISRDNAKNTVYLEMNSLKPEDTAVYYCAAGSRLGWGSEYWGQGTQVTVSS | high polyreactivity
QVHLVESGGGLVQAGGSLRLSCAASALTDGRYAMGWYRQAPGKERELVADIRYRAGSTNYADSVKGRFTISRDNAKNTVYLQMNSLKPEDTAVYYCAKGHPNDFGYWGQGTQVTVSS | high polyreactivity
QVHLVESGGGLVQAGGSLRLSCAASARIFRYYTMGWNRQAPGKERELVAAISVSGGSTYYADSVKGRFTSSRDNAKNTVYILMNSLKPEDTAVYYCAAPFVWSSYRGYDYWGQGSQVTVSS | high polyreactivity
QVHLVESGGGLVQAGGSLRLSCAASGAMGWYRQAPGKERELVAAISSGNTNYADSVKGRFTISRDNAKNTVYLQMNSLKPEDTAVYYCAAEQPYGQKNTGLGVIDLDYWGQGTQVTVSS | low polyreactivity
QVHLVESGGGLVQAGGSLRLSCAASGFIFLHYAMGWYRQAPGKERELVAAINKSGGSTYYADSVKGRFTSSRDNAMYTDYLQMNSLKPEDTAVYYCNAVYYWFIGDYWGQGTQVTVSS | high polyreactivity
QVHLVESGGGLVQAGGSLRLSCAASGFIFSLYAMGWYRQAPGKERELVAAISKRGGSTNYADSVKGRFTISRDNAKNTVYLQMNSLKPEDTAVYYWAKARPGFLYDHWGQGTQVTVSS | high polyreactivity
QVHLVESGGGLVQAGGSLRLSCAASGFIFYYYAMGWYRQAPGKERELVASISAIGGGTYYADSVNGRFTISRDNAKNTVYLQMNSLKPEDTAVYYCDPDGDGWWWSYVDRYDYWGQGTQVTVSS | low polyreactivity
